How the values were obtained:
[1] = system: Saccharomyces cerevisiae; experiment: protein stability index of tFT-peptide fusion in deletion strain of DAS1 (PSI (0-1 scale)); higher = more stable (slower turnover)
Experimental: (§1)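 MPS profiling in S. cerevisiae of two library types built from selected 12-aa C-degron peptides (IN1, IN2, LN1, LN3, VN2, R1-R5, W1-W3, Atg1 and Rpa12 C-termini): saturation mutagenesis libraries and C-terminal +1 capping libraries (13 aa). Each peptide is fused to the C-terminus of a sfGFP-mCherry timer, after a GGGS linker. Cells are FACS-sorted into 8 mCherry/sfGFP bins and sequenced. PSI runs from 0 (unstable) to 1 (stable), measured once in wild type and in the das1Δ or doa10Δ background.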

[2] = system: Saccharomyces cerevisiae; experiment: protein stability index of tFT-peptide fusion in wild type (PSI (0-1 scale)); higher = more stable (slower turnover); conditions: genetic background: wild type
Experimental: as §1
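For protein stability index of tFT-peptide fusion in deletion strain of DAS1 in this document: PSI is a weighted mean of each variant's read distribution over the sorted stability bins, computed only for variants having over 10 reads in total.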
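For protein stability index of tFT-peptide fusion in wild type in this document: PSI derived as read-weighted mean over the 8 sorting bins, only variants exceeding 10 total reads kept, mCherry placed adjacent to the peptide and sfGFP distal.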

Row | Sequence | protein stability index [1] | protein stability index [2]
1 | LKILRQKNNHQN | 0.687 | 0.425
2 | LKILRQKSNHQN | 0.688 | 0.581
3 | LKILRQMMNHQN | 0.692 | 0.176
4 | LKILYQKMNHQN | 0.679 | 0.259
5 | LKIVRQKMNHQN | 0.696 | 0.197
6 | LVPYLSCVACIN | 0.366 | 0.182
7 | LVRYLSCVACIN | 0.316 | 0.0691
8 | LVVILSCVACIN | 0.0419 | 0.0224
9 | LVVNLSCVACIN | 0.172 | 0.0111
10 | LVVYESCVACIN | 0.402 | 0.343
11 | LVVYISCVACIN | 0.0366 | 0.0144
12 | LVVYKSCVACIN | 0.415 | 0.218
13 | LVVYLECVACIN | 0.0239 | 0.0187
14 | LVVYLGCVACIN | 0.192 | 0.135
15 | LVVYLSCMACIN | 0.0753 | 0.0207
16 | LVVYLSCPACIN | 0.513 | 0.469
17 | LVVYLSCVACINS | 0.0599 | 0.029
18 | LVVYLSCVACLN | 0.0375 | 0.0163
19 | LVVYLSCVACVN | 0.0193 | 0.0169
20 | LVVYLSCVAFIN | 0.0206 | 0.0135
21 | LVVYLSCVAHIN | 0.0209 | 0.0148
22 | LVVYLSMVACIN | 0.0257 | 0.0159
23 | LVVYLSYVACIN | 0.142 | 0.097

Row | Sequence | protein stability index [1] | protein stability index [2]
24 | LVVYMSCVACIN | 0.0291 | 0.0151
25 | LVVYSSCVACIN | 0.0458 | 0.0132
26 | LVWYLSCVACIN | 0.0212 | 0.0133
27 | MSMRWTFRYWVN | 0.536 | 0.0515
28 | MVVYLSCVACIN | 0.0769 | 0.0181
29 | NKHKKGQKQKIN | 0.562 | 0.122
30 | NSLAASFWRVVG | 0.679 | 0.147
31 | PDFRNHLIKLLN | 0.619 | 0.112
32 | PDKREHLIKLLN | 0.716 | 0.158
33 | PDKRKHLIKLLN | 0.583 | 0.171
34 | PDKRNHCIKLLN | 0.585 | 0.148
35 | PDKRNHFIKLLN | 0.603 | 0.102
36 | PDKRNHLIKILN | 0.663 | 0.137
37 | PDKRNHLIKLAN | 0.579 | 0.367
38 | PDKRNHLIKLCN | 0.583 | 0.22
39 | PDKRNHLIKLDN | 0.613 | 0.602
40 | PDKRNHLIKLFN | 0.551 | 0.346
41 | PDKRNHLIKLLL | 0.615 | 0.332
42 | PDKRNHLIKLLNM | 0.659 | 0.145
43 | PDKRNHLIKLLNS | 0.669 | 0.117
44 | PDKRNHLIKLLNW | 0.684 | 0.571
45 | PDKRNHLIKLLR | 0.643 | 0.683
46 | PDKRNHLIKLNN | 0.598 | 0.447

Row | Sequence | protein stability index [1] | protein stability index [2]
47 | PDKRNHLIKLWN | 0.627 | 0.314
48 | PDKRNHLILLLN | 0.635 | 0.114
49 | PDKRNHLKKLLN | 0.616 | 0.101
50 | PDKRPHLIKLLN | 0.678 | 0.0997
51 | PDKYNHLIKLLN | 0.59 | 0.0777
52 | PDMRNHLIKLLN | 0.757 | 0.0863
53 | PDYRNHLIKLLN | 0.607 | 0.0727
54 | PELAASFWRVVG | 0.694 | 0.2
55 | PKHKKGQKQKIN | 0.747 | 0.0768
56 | PSAAASFWRVVG | 0.678 | 0.174
57 | PSHAASFWRVVG | 0.697 | 0.163
58 | PSLAASFARVVG | 0.684 | 0.622
59 | PSLAASFRRVVG | 0.656 | 0.665
60 | PSLAASFWRPVG | 0.677 | 0.656
61 | PSLAASFWRSVG | 0.699 | 0.168
62 | PSLAASFWRVGG | 0.677 | 0.676
63 | PSLAASFWRVVGH | 0.707 | 0.681
64 | PSLAASFWRVVGL | 0.713 | 0.683
65 | PSLAASFWRVVGP | 0.692 | 0.684
66 | PSLAASFWRVVR | 0.685 | 0.688
67 | PSLAASFWRVWG | 0.696 | 0.38
68 | PSLAASFWYVVG | 0.708 | 0.655
69 | PSLAASIWRVVG | 0.69 | 0.143

Row | Sequence | protein stability index [1] | protein stability index [2]
70 | PSLAASSWRVVG | 0.694 | 0.167
71 | PSLAESFWRVVG | 0.685 | 0.482
72 | PSLALSFWRVVG | 0.669 | 0.183
73 | PSLASSFWRVVG | 0.696 | 0.165
74 | PSLAWSFWRVVG | 0.724 | 0.0943
75 | PSLNASFWRVVG | 0.699 | 0.159
76 | PSPAASFWRVVG | 0.69 | 0.115
77 | PTKRNHLIKLLN | 0.582 | 0.114
78 | PVVYLSCVACIN | 0.0265 | 0.0343
79 | QKHKKGQKQKIN | 0.676 | 0.0918
80 | RDIQPLPVQFLN | 0.596 | 0.0918
81 | REIQPLPVQFLN | 0.61 | 0.121
82 | RLEQPLPVQFLN | 0.574 | 0.0758
83 | RLIAPLPVQFLN | 0.738 | 0.0614
84 | RLIFPLPVQFLN | 0.553 | 0.0304
85 | RLILPLPVQFLN | 0.589 | 0.0596
86 | RLIMPLPVQFLN | 0.572 | 0.0368
87 | RLIQFLPVQFLN | 0.539 | 0.00974
88 | RLIQKLPVQFLN | 0.589 | 0.0183
89 | RLIQPHPVQFLN | 0.776 | 0.0682

— the supplement of paper PMC10724198
